Assay results published in patent publication US20150079657.

How the values were obtained:
Test in all cases: cell_activity
[1] = system: ZF(Oct4+286)-p300 (Artificial Sequence); conditions: OCT4 mRNA in HEK293; at least 20-fold in K562; H3K27ac increased
[2] = system: ZF(Oct4+420)-p300 (Artificial Sequence); conditions: OCT4 mRNA in HEK293; at least 20-fold in K562; H3K27ac increased
[3] = system: ZF(Sox2+185)-p300 (Artificial Sequence); conditions: SOX2 mRNA in HEK293; nearly 2-fold or greater in K562
ZF(Sox2+185)-p300 (Artificial Sequence), sequence (chain, as listed by the source): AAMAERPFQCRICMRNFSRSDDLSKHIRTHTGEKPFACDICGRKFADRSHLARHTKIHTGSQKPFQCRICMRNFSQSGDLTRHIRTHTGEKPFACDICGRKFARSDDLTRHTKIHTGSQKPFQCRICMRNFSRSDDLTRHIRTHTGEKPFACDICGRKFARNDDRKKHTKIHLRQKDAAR

[4] = system: ZF(Sox2+r475)-p300 (Artificial Sequence); conditions: SOX2 mRNA in HEK293; nearly 2-fold or greater in K562
ZF(Sox2+r475)-p300 (Artificial Sequence), sequence (chain, as listed by the source): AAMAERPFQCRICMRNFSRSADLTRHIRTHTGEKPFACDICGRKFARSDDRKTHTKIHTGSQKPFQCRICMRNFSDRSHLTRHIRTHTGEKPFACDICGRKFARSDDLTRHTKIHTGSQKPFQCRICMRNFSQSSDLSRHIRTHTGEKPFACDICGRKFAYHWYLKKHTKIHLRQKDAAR

ZF(Oct4+420)-p300 (Artificial Sequence), sequence (chain, as listed by the source): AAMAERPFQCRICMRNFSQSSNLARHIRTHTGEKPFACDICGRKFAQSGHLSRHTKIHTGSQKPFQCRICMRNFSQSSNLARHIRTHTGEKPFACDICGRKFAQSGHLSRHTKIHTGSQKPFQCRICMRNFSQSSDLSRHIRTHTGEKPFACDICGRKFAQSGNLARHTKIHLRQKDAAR
ZF(Oct4+286)-p300 (Artificial Sequence), sequence (chain, as listed by the source): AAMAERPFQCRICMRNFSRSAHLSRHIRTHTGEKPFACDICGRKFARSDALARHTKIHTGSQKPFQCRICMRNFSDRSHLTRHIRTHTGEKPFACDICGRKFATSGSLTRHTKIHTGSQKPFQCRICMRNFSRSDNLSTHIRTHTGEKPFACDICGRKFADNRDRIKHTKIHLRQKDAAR

OCT4 +286 target site
activity [1]: > 90 fold

OCT4 +420 target site
activity [2]: > 90 fold

SOX2 +185 target site
activity [3]: > 1.5 fold

SOX2 +r475 target site (reverse strand)
activity [4]: > 1.5 fold
